# Columns and labels:
# [1] = system: MDA231 (breast tumor cell line; CD44 +ve); test: tumor cell migration, wound closure assay, MDA231; format: cell-based
# Experimental: In these experiments, the effect of recombinant FKBP-L on tumor cell migration was assessed. The in vitro migration assay used in these studies is a modified version of the method described by Ashton et al (1999) see supra. PC3, MDA231, and HT29 tumor cells were plated into individual chambers on a glass slide and grown to 90% confluence overnight. The medium was removed and the monolayers wounded. The monolayer was re-supplemented with fresh medium and the required volume of His-tagged recombinant FKBP-L protein (SEQ ID NO: 1) was added to give the final concentrations shown. The monolayers were incubated for 24 hours and then fixed in 4% PBS buffered paraformaldehyde.
# The extent of “wound” closure was blindly assessed microscopically by an independent investigator and quantified using a calibrated eyepiece graticule (1 mm/100 μm graduation) at 20× magnification (Olympus BX 50). The extent of closure in the FKBP-L treated slides was compared to time matched sham-treated controls and the percent inhibition of wound closure compared to time matched controls calculated. […]
# The extent of “wound” closure was blindly assessed microscopically by an independent investigator and quantified using a calibrated eyepiece graticule (1 mm/100 μm graduation) at 20× magnification (Olympus BX 50). […]
# HMEC-1 = test: in vitro migration assay (wound closure / wound scrape), recombinant protein or peptides added to medium; format: cell-based, Human
# Experimental: (§1) The in vitro migration assay used in these studies is a modified version of the method described by Ashton et al (1999). HMEC-1 were plated into individual chambers on a glass slide and grown to 90% confluence overnight. The medium was removed and the monolayer wounded. The monolayer was re-supplemented with fresh medium and the required volume of recombinant full length his-tagged FKBP-L protein (SEQ ID NO: 1) was added to give the required final concentration.
# The monolayers were incubated for 7 hours after exposure to recombinant FKBP-L protein and then fixed in 4% PBS buffered paraformaldehyde. The extent of “wound” closure was blindly assessed microscopically by an independent investigator and quantified using a calibrated eyepiece graticule (1 mm/100 μm graduation) at 20× magnification (Olympus BX 50). The extent of closure in the FKBP-L treated slides was compared to time matched sham treated controls and the % inhibition of wound closure compared to time matched controls calculated.
# The following studies were performed to determine the effect of a full length His-tagged recombinant FKBP-L protein on the wound closure assay measured as a function of time. Again, the in vitro migration assay used in these studies is a modified version of the method described by Ashton et al (1999). HMEC-1 were plated into individual chambers on a glass slide and grown to 90% confluence overnight. The medium was removed and the monolayer wounded. The monolayer was re-supplemented with fresh medium and the required volume of full length his-tagged recombinant FKBP-L (i.e., SEQ ID NO: 1) added to give the required final concentration 750 ngml^−1.
# Slides were removed at fixed time points until complete closure of the wound, then fixed in 4% PBS buffered paraformaldehyde. The extent of “wound” closure was blindly assessed microscopically by an independent investigator and quantified using a calibrated eyepiece graticule (1 mm/100 μm graduation) at 20× magnification (Olympus BX 50). The extent of closure in the FKBP-L treated slides was compared to time matched sham treated controls and the % inhibition of wound closure compared to time matched controls calculated.
# as §1, with “al. (1999) see supra.” for “al (1999).”, “the following peptides” for “recombinant full length his-tagged FKBP-L protein (SEQ ID NO: 1)”, “achieve a dose range from 10^−14-10^−6 M.” for “give the required final concentration.”
# The monolayers were incubated for 7 h and then fixed in 4% PBS buffered paraformaldehyde. The extent of “wound” closure was blindly assessed microscopically by an independent investigator and quantified using a calibrated eyepiece graticule (1 mm/100 μm graduation) at 20× magnification (Olympus BX 50). The extent of closure in the FKBP-L treated slides was compared to time matched sham treated controls and the % inhibition of wound closure compared to time matched controls calculated.
# The in vitro migration assay used in these studies is a modified version of the method described by Ashton et al. (1999) see supra. HMEC-1 were plated into individual chambers on a glass slide and grown to 90% confluence overnight. The medium was removed and the monolayers wounded. The monolayer was re-supplemented with fresh medium and the required volume of each peptide (i.e., peptides 1-17, SEQ ID NOS: 12-28; Table 4 below) was added to give the required final concentration (10^−14-10^−6 M).
# The monolayers were incubated for 24 h and then fixed in 4% PBS buffered paraformaldehyde. The extent of “wound” closure was blindly assessed microscopically by an independent investigator and quantified using a calibrated eyepiece graticule (1 mm/100 μm graduation) at 20× magnification (Olympus BX 50). […]
Molecule,"effect on tumor cell migration ([1]; MDA-231, 10^−14-10^−7 M, 24 h)","potency compared with the full length recombinant protein on a mole/mole basis (HMEC-1; wound scrape, 7 h)","effect on tumor cell migration ([1]; MDA231, 24 hours)",delay of 50% wound closure versus control (HMEC-1; 750 ngml^−1),"time until 50% wound closure (HMEC-1; 750 ngml^−1, single administration, control 7 hours)","inhibition of HMEC-1 migration into the denuded area of the monolayer compared to time matched controls (HMEC-1; 750 ngml^−1, 7 hours)","time until which the wound remained open (total wound closure) (HMEC-1; 750 ngml^−1, control 16 hours)",optimum concentration for inhibition of migration (HMEC-1; 7 hours),dose effective to prevent cell migration (HMEC-1; FIG. 4 dose response)
H-QIRQQPRDPPTETLELEVSPDPAS-OH [FKBP-L 24mer],can inhibit,increased potency,–,–,–,–,–,–,–
"full length recombinant FKBP-L: recombinant full length his-tagged FKBP-L protein (SEQ ID NO: 1) expressed in BL21 (DE3) (protein, listed as Homo sapiens, His tag) MRGSHHHHHHGMASMTGGQQMGRDLYDDDDKDRWGSMETPPVNTIGEKDTSQPQQEWEKNLRENLDSVIQIRQQPRDPPTETLELEVSPDPASQILEHTQGAEKLVAELEGDSHKSHGSTSQMPEALQASDLWYCPDGSFVKKIVIRGHGLDKPKLGSCCRVLALGFPFGSGPPEGWTELTMGVGPWREETWGELIEKCLESMCQGEEAELQLPGHTGPPVGLTLASFTQGRDSWELETSEKEALAREERARGTELFRAGNPEGAARCYGRALRLLLTLPPPGPPERTVLHANLAACQLLLGQPQLAAQSCDRVLEREPGHLKALYRRGVAQAALGNLEKATADLKKVLAIDPKNRAAQEELGKVVIQGKNQDAGLAQGLRKMFG",–,–,inhibits tumor cell migration in a dose-dependent manner,9 h,16 h,60%,34 h,750 ngml^−1,10^−6 M
